The values below come from USRE40789 (BAYLOR COLLEGE OF MEDICINE, dated 2009).

This test deals with T1, GST-Dun1 (Saccharomyces cerevisiae, UniProt P39009 1-513).
T1 construct: Control GST fusion; The species is stated only in the background paragraph, not where the pull-down is told; not shown: glutathione S-transferase (GST) fusion partner
T1 sequence (looked up): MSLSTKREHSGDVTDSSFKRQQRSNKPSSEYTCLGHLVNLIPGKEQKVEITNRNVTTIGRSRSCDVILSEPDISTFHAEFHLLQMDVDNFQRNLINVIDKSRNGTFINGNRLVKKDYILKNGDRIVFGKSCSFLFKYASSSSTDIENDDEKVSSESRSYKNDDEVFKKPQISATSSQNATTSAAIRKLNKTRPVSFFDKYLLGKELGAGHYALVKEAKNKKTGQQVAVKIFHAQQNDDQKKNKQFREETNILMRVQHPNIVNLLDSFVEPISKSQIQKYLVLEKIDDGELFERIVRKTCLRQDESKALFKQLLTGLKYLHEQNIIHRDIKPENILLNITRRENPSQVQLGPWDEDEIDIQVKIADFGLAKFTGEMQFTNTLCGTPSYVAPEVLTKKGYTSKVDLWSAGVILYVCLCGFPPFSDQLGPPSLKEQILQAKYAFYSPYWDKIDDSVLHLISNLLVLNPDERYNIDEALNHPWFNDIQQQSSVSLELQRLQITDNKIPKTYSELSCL
Description: GST pull-down on glutathione beads from baculovirus extracts, immunoblot with anti Chk1 antibodies. In general terms: A western blot detects proteins with antibodies after separation by electrophoresis.

B1: His6-tagged hChk1 (enzyme)
chain: MAVPFVEDWDLVQTLGEGAYGEVQLAVNRVTEEAVAVKIVDMKRAVDCPENIKKEICINKMLNHENVVKFYGHRREGNIQYLFLEYCSGGELFDRIEPDIGMPEPDAQRFFHQLMAGVVYLHGIGITHRDIKPENLLLDERDNLKISDFGLATVFRYNNRERLLNKMCGTLPYVAPELLKRREFHAEPVDVWSCGIVLTAMLAGELPWDQPSDSCQEYSDWKEKKTYLNPWKKIDSAPLALLHKILVENPSARITIPDIKKDRWYNKPLKKGAKRPRVTSGGVSESPSGFSKHIQSNLDFSPVNSASSEENVKYSSSQPEPRTGLSLWDTSPSYIDKLVQGISFSQPTCPDHMLLNSQLLGTPGSSQNPWQRLVKRMTRFFTKLDADKSYQCLKETCEKLGYQWKKSCMNQVTISTTDRRNNKLIFKVNLLEMDDKILVDFRLSKGDGLEFKRHFLKIKGKLIDIVSSQKVWLPATHHHHHH
notes: Expressed in baculovirus; used as a crude baculovirus extract in the pull-down and purified in the kinase assay; also called hChk1-His6; His6-tagged hChk1 derivative
As for B1, the binding result is “no binding”.
